Numbering of substitutions follows the chain as printed.

Assay [1] concerns the target T1, Human MAGEB2 (Melanoma-associated antigen B2) (human, UniProt O15479 1-319).
T1 construct: Intracellular antigen detected by IHC in FFPE material: CHO cells transfected with human MAGEB2 (mCherry vector with Myc/DDK tags, or ORF without tags)
T1 sequence: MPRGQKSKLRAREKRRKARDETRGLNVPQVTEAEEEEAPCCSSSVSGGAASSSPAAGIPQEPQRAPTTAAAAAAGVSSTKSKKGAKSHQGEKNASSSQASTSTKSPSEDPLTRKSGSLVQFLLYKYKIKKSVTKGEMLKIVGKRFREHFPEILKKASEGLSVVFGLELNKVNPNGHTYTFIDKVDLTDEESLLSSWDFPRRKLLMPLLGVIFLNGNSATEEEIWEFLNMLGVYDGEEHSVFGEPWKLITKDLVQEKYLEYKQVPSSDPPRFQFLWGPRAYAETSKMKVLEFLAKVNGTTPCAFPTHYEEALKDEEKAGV
The experiment in a line: IHC on FFPE CFPAC-1 cells (endogenous MAGEB2). As for the experimental part:
(§1) FFPE samples were sectioned at 4 μm and mounted on positive charged glass slides. After mounting, paraffin sections were air-dried at room temperature. FFPE TMA samples were received as freshly sectioned and mounted on glass slides. The fully automated IHC assay was performed on a Discovery Ultra Stainer (Ventana Medical Systems, Tucson, AZ) using Ventana Anti-Rabbit HQ (cat #760-4815), Ventana Anti-HQ HRP (cat #760-4820), and Ventana Antibody Diluent with Casein (cat #760-219) (Ventana Medical Systems, Tucson, AZ). The slides were baked on the Discovery Ultra Stainer at 60° C. for 8 minutes, de-paraffinized with Ventana Discovery wash (cat #950-510) for 3 cycles (8 minutes each) at 69° C., and underwent cell conditioning (target retrieval) at 95° C. for 16 minutes (for cell arrays) or 32 minutes (tissues or TMAs) in CC1 buffer (cat #950-500). Following this, slides were incubated with Background Sniper (cat #BS966M, Biocare Medical, Pacheco, CA) in a Ventana Option Prep kit (cat #771-751) for 28 minutes, incubated with CM inhibitor (a part of the Ventana DAB kit cat #760-159) for 12 minutes, and incubated for 1 h at RT with MAGE-B2 antibody diluted with Ventana diluent with Casein in a Ventana Prep kit (cat #770-001) (working concentration at 0.1 μg/ml for cell pellet, or 1-5 ug/ml for tissues) or with a matched concentration of isotype control Rabbit IgG1 antibody. Following this, slides were incubated with the Ventana Anti-Rabbit HQ (cat #760-4815) for 28 minutes at RT, Ventana Anti-HQ HRP (cat #760-4820) for 28 minutes at RT, and signals detected with Ventana DAB chromogen kit (cat #760-159) for 5 minutes at RT. Slides were counterstained with Ventana Hematoxylin II (cat #5266726001) for 8 minutes and Ventana Bluing reagent (cat #526676900) for 4 minutes. Slides were coverslipped and digitized using an Aperio AT2 scanner (Leica Biosystems Inc, Buffalo Grove, IL).

The target in assay [2] is T1, Human MAGEB2 (Melanoma-associated …). As to the kind of experiment: IHC on FFPE UM-UC-3 cells (endogenous MAGEB2). As for the experimental part:
as §1

Assay [3] deals with T2, human MAGEA8 (human, UniProt P43361 1-318).
T2 construct: whole, on cells; FFPE cell pellets
T2 sequence (looked up): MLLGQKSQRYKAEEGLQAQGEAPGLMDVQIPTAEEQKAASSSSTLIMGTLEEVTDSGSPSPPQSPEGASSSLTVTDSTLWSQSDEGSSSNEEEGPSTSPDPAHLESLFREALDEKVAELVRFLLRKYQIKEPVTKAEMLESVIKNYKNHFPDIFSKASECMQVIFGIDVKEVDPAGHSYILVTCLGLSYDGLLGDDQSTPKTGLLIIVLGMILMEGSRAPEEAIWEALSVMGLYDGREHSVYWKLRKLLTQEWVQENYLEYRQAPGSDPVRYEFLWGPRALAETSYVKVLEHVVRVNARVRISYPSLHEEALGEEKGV
The experiment in a line: IHC, FFPE CHO cells transfected with human MAGEA8.
Text: Negative control cells included parental Chinese hamster ovary (CHO) cells, CHO cells stably transfected with mCherry Vector Control (minus Myc/DDK tags), CHO cells stably transfected with mCherry-human DCAF4L2 (plus Myc/DDK tags). The cross-reactivity control cells included CHO cells transfected with mCherry Vector Control (plus Myc/DDK tags) with one of the human MAGE-B or MAGE-A family members (MAGEA1, MAGEA2, MAGEA3, MAGEA4, MAGEA5, MAGEA6, MAGEA8, MAGEA9, MAGEA11, MAGEA12, MAGEB1, MAGEB3, MAGEB4, MAGEB5, MAGEB6, MAGEB10, MAGEB16, MAGEB17, MAGEB18). Positive control cell lines included CHO cells transfected with mCherry Vector (plus Myc/DDK tags) with human MAGE-B2 or CHO cells transfected with mCherry Vector (open reading frame (ORF); minus Myc/DDK tags) with human MAGEB2, and thirteen human cancer cell lines with known endogenous RNA expression level of MAGEB2 (U266B1, T98G, KMM-1, U20S, CFPAC-1, SCaBER, UACC-257, CFPAC-1, VMRC-LCD, NCI-H1703, UM-UC-3, NCI-H1395, NCIH82).
as §1, with “antibody.” for “antibody. Following this, slides were incubated with the Ventana Anti-Rabbit HQ (cat #760-4815) for 28 minutes at RT, Ventana Anti-HQ HRP (cat #760-4820) for 28 minutes at RT, and signals detected with Ventana DAB chromogen kit (cat #760-159) for 5 minutes at RT. Slides were counterstained with Ventana Hematoxylin II (cat #5266726001) for 8 minutes and Ventana Bluing reagent (cat #526676900) for 4 minutes. Slides were coverslipped and digitized using an Aperio AT2 scanner (Leica Biosystems Inc, Buffalo Grove, IL).”

B1: 1I14 (antibody, V domains shown)
VH: QSVEESGGRLVTPGTPLTLTCTISGFSLSSYAMSWVRQAPGKGLEWIGSIGGGGSAVYASWAKGRFTISKTSTTVDLRITSPTTEDTAMYFCGRGFYSIDLWGPGTLVTVSS
VL: DVVMTQTPASVEATVGGTVTIKCQSSQSVYDNNALAWYQQNAGQRPRLLIYGASTLASGVPSRFSASGSGTEFTLTISDLECADAATYYCQCTYYVSSYQNDFGGGTEVVVKG
notes: also called MAGE-B2 (1i14)
In the case of B1, the “IHC % Frequency” value in assay [1] was 0%. Moreover, in assay [2], the “IHC Intensity” value was determined as 0. For the same molecule, in assay [3], the binding result was “no binding (tested: 0.1 µg/ml)”.

B2: 1C3 (antibody, V domains shown)
VH: QSLEESGGGLVQPEGSLTLTCTAFGVTLTNYYICWVRQAPGKGLEWVGCIDNANGRTYYASWAKGRFTISKTSSTTGTLQMTSLTAADTATYFCARSLATPLWGPGTLVTVSS
VL: DIVMTQTPSSVEAAVGGTVTIKCQASQNISSYLAWYQQKPGQPPKLLIYRASTLASGVPSRFKGSGSGTQFTLTISDLECADAATYYCQSYDDSRSSNFFYAFGGGTEVVVKG
notes: also called MAGE-B2 (IC3); anti-MAGEB2 antibody 1C3
For B2, in assay [1], the “IHC % Frequency” value was found to be 0%. In assay [3], the binding result is recorded as “no binding (tested: 0.1 µg/ml)”.

B3: 4G17 (antibody, IgG1, V domains shown)
VH: B2 VH with F24S, T29S, V47I, A53V
VL: DIVMTQTPASVEAAVGGTVTIKCQASQNIDSYLAWYQQKPGQPPKLLIYRASTLASGVPSRFKGSGSGTEFTLTISDLECADAATYYCQSYDDSRSSSFFYGFGGGTEVVVK
notes: Rabbit monoclonal IgG1; Tested as supernatant and as small batch purified antibody; also called MAGE-B2 (4G17); anti-MAGEB2 antibody 4G17
As for B3, the “IHC % Frequency” value in assay [1] was 0%. The “IHC Intensity” value in assay [2] was 0. The binding result in assay [3] is reported as “no binding (tested: 0.1 µg/ml)”.

B4: 1J15 (antibody, IgG1, V domains shown)
VH: B2 VH with V26F, T29N, V47I, G48A, G77V, A99S
VL: B3 VL with N28S, D30S, A34S, K63R, E70Q, R95S, S96D, S97N, S98N, K112R
notes: Rabbit monoclonal IgG1; Tested as supernatant and as small batch purified antibody; also called MAGE-B2 (IJ15); anti-MAGEB2 antibody 1J15
B4: the “IHC % Frequency” value in assay [1] came to 0%. The “IHC Intensity” value in assay [2] was 0. The binding result in assay [3] is reported as “no binding (tested: 0.1 µg/ml)”.

(Values after patent US20250282887A1 (Amgen, published 2025).)
